Laboratory results reported in US20100021987.

Legend:
[1] = target: 6xHis-hSUMO-3-X-eGFP, X = A
[2] = target: 6xHis-hSUMO-3-X-eGFP, X = K
[3] = target: 6xHis-hSUMO-3-X-eGFP, X = N
[4] = target: 6xHis-hSUMO-3-X-eGFP, X = P
[5] = target: 6xHis-hSUMO-3-X-eGFP, X = C
[6] = target: 6xHis-hSUMO-3-X-eGFP, X = W
[7] = target: 6xHis-hSUMO-3-X-eGFP, X = Y
[8] = target: 6xHis-hSUMO-3-X-eGFP, X = V
[9] = target: 6xHis-hSUMO-3-X-eGFP, X = T
[10] = target: 6xHis-hSUMO-3-X-eGFP, X = Q
[11] = target: 6xHis-hSUMO-3-X-eGFP, X = S
[12] = target: 6xHis-hSUMO-3-X-eGFP, X = D
[13] = target: 6xHis-hSUMO-3-X-eGFP, X = G
[14] = target: 6xHis-hSUMO-3-X-eGFP, X = I
[15] = target: 6xHis-hSUMO-3-X-eGFP, X = R
[16] = target: 6xHis-hSUMO-3-X-eGFP, X = L
[17] = target: 6xHis-hSUMO-3-X-eGFP, X = F
[18] = target: 6xHis-hSUMO-3-X-eGFP, X = E
[19] = target: 6xHis-hSUMO-3-X-eGFP, X = H

B1: Saccharomyces cerevisiae Ulp1 SUMO protease catalytic domain (protein)
chain: MGLVPELNEKDDDQVQKALASRENTQLMNRDNIEITVRDFKTLAPRRWLNDTIIEFFMKYIEKSTPNTVAFNSFFYTNLSERGYQGVRRWMKRKKTQIDKLDKIFTPINLNQSHWALGIIDLKKKTIGYVDSLSNGPNAMSFAILTDLQKYVMEESKHTIGEDFDLIHLDCPQQPNGYDCGIYVCMNTLYGSADAPLDFDYKDAIRMRRFIAHLILTDALKLEHHHHHH
- Percent cleavage, enzyme:substrate 1:100 [1]: 96.3%
- Percent cleavage, enzyme:substrate 1:1000 [1]: 27.1%
- activity level (grade) (6xHis-T-SUMO-eGFP): ++
- cleavage, 2-fold enzyme dilution series, SDS-PAGE (6xHis-T-SUMO-eGFP): yUlp1 had a distinct advantage in the cleavage of T-SUMO-eGFP
- cleavage, time course, SDS-PAGE (6xHis-T-SUMO-eGFP): cleaving not only T-SUMO but also AtSUMO1 and AtSUMO2 significantly better than did hSENP2
- Percent cleavage, enzyme:substrate 1:100 [2]: 22.4%
- Percent cleavage, enzyme:substrate 1:1000 [2]: 0%
- Percent cleavage, enzyme:substrate 1:100 [3]: 97.9%
- Percent cleavage, enzyme:substrate 1:1000 [3]: 16.9%
- activity level (grade) (6xHis-hSUMO-1-eGFP): +
- cleavage, time course, SDS-PAGE (6xHis-hSUMO-1-eGFP): both enzymes cleaving hSUMO-1-eGFP poorly
- Percent cleavage, enzyme:substrate 1:100 [4]: 0%
- Percent cleavage, enzyme:substrate 1:1000 [4]: 0%
- Kcat (6xHis-ySmt3-eGFP): Kcat = 0.40
- Km (6xHis-ySmt3-eGFP): Km = 4.5 mM
- activity level (grade) (6xHis-ySmt3-eGFP): ++++
- cleavage, time course, SDS-PAGE (6xHis-ySmt3-eGFP): both enzymes cleaving hSUMO-1-eGFP poorly and ySmt3-eGFP well
- Percent cleavage, enzyme:substrate 1:100 [5]: 98.4%
- Percent cleavage, enzyme:substrate 1:1000 [5]: 25.3%
- Percent cleavage, enzyme:substrate 1:100 [6]: 89.7%
- Percent cleavage, enzyme:substrate 1:1000 [6]: 16.8%
- Percent cleavage, enzyme:substrate 1:100 [7]: 96.9%
- Percent cleavage, enzyme:substrate 1:1000 [7]: 16.9%
- Percent cleavage, enzyme:substrate 1:100 [8]: 20.2%
- Percent cleavage, enzyme:substrate 1:1000 [8]: 4%
- Kcat (6xHis-hSUMO-3-eGFP): Kcat = 0.027
- Km (6xHis-hSUMO-3-eGFP): Km = 15.8 mM
- Percent cleavage, enzyme:substrate 1:100 (6xHis-hSUMO-3-eGFP): 98.3%
- Percent cleavage, enzyme:substrate 1:1000 (6xHis-hSUMO-3-eGFP): 18.4%
- activity level (grade) (6xHis-hSUMO-3-eGFP): +
- cleavage, time course, SDS-PAGE (6xHis-hSUMO-3-eGFP): yUlp1 was able to cleave apparently less than half of the substrate in 4 hrs.
- activity level (grade) (6xHis-AtSUMO2-eGFP): ++
- cleavage, 2-fold enzyme dilution series, SDS-PAGE (6xHis-AtSUMO2-eGFP): a slight advantage in the cleavage of AtSUMO2-eGFP
- cleavage, time course, SDS-PAGE (6xHis-AtSUMO2-eGFP): cleaving not only T-SUMO but also AtSUMO1 and AtSUMO2 significantly better than did hSENP2
- Percent cleavage, enzyme:substrate 1:100 [9]: 95.8%
- Percent cleavage, enzyme:substrate 1:1000 [9]: 14.3%
- activity level (grade) (6xHis-AtSUMO1-eGFP): ++
- cleavage, 2-fold enzyme dilution series, SDS-PAGE (6xHis-AtSUMO1-eGFP): Both hSENP2 and yUlp1 cleaved the AtSUMO1 fusion similarly
- cleavage, time course, SDS-PAGE (6xHis-AtSUMO1-eGFP): cleaving not only T-SUMO but also AtSUMO1 and AtSUMO2 significantly better than did hSENP2
- Percent cleavage, enzyme:substrate 1:100 [10]: 65.5%
- Percent cleavage, enzyme:substrate 1:1000 [10]: 3.7%
- Percent cleavage, enzyme:substrate 1:100 [11]: 98.2%
- Percent cleavage, enzyme:substrate 1:1000 [11]: 16.7%
- Percent cleavage, enzyme:substrate 1:100 [12]: 92.3%
- Percent cleavage, enzyme:substrate 1:1000 [12]: 3.3%
- Percent cleavage, enzyme:substrate 1:100 [13]: 96.5%
- Percent cleavage, enzyme:substrate 1:1000 [13]: 27%
- Percent cleavage, enzyme:substrate 1:100 [14]: 1.9%
- Percent cleavage, enzyme:substrate 1:1000 [14]: 0%
- Percent cleavage, enzyme:substrate 1:100 [15]: 96.6%
- Percent cleavage, enzyme:substrate 1:1000 [15]: 17.2%
- Percent cleavage, enzyme:substrate 1:100 [16]: 4.4%
- Percent cleavage, enzyme:substrate 1:1000 [16]: 0%
- Percent cleavage, enzyme:substrate 1:100 [17]: 95.4%
- Percent cleavage, enzyme:substrate 1:1000 [17]: 27%
- Percent cleavage, enzyme:substrate 1:100 [18]: 80.1%
- Percent cleavage, enzyme:substrate 1:1000 [18]: 11.3%
- Percent cleavage, enzyme:substrate 1:100 [19]: 90.8%
- Percent cleavage, enzyme:substrate 1:1000 [19]: 25.5%

B2: human SENP6 (hSENP6) SUMO protease catalytic domain (protein)
chain: MGENHTIFIGPVEKLIVYPPPPAKGGISVTNEDLHCLNEGEFLNDVIIDFYLKYLVLEKLKKEDADRIHIFSSFFYKRLNQRERRNHETTNLSIQQKRHGRVKTWTRHVDIFEKDFIFVPLNEAAHWFLAVVCFPGLEKPKYEPNPHYHENAVIQKCSTVEDSCISSSASEMESCSQNSSAKPVIKKMLNKKHCIAVIDSNPGQEESDPRYKRNICSVKYSVKKINHTASENEEFNKGESTSQKVADRTKSENGLQNESLSSTHHTDGLSKIRLNYSDESPEAGKMLEDELVDFSEDQDNQDDSSDDGFLADDNCSSEIGQWHLKPTICKQPCILLMDSLRGPSRSNVVKILREYLEVEWEVKKGSKRSFSKDVMKGSNPKVPQQNNFSDCGVYVLQYVESFFENPILSFELPMNLANWFPPPRMRTKREEIRNIILKLQEDQSKEKRKHKDTYSTEAPLGEGTEQYVNSISDLEHHHHHH
- activity level (grade) (6xHis-T-SUMO-eGFP): -
- cleavage, single enzyme concentration, SDS-PAGE (6xHis-T-SUMO-eGFP): did not digest the others at the incubation time and enzyme concentration used
- activity level (grade) (6xHis-hSUMO-1-eGFP): -
- cleavage, single enzyme concentration, SDS-PAGE (6xHis-hSUMO-1-eGFP): did not digest the others at the incubation time and enzyme concentration used
- activity level (grade) (6xHis-ySmt3-eGFP): -
- cleavage, single enzyme concentration, SDS-PAGE (6xHis-ySmt3-eGFP): did not digest the others at the incubation time and enzyme concentration used
- activity level (grade) (6xHis-hSUMO-3-eGFP): +/-
- cleavage, single enzyme concentration, SDS-PAGE (6xHis-hSUMO-3-eGFP): demonstrated partial cleavage of hSUMO-3-eGFP
- activity level (grade) (6xHis-AtSUMO2-eGFP): -
- cleavage, single enzyme concentration, SDS-PAGE (6xHis-AtSUMO2-eGFP): did not digest the others at the incubation time and enzyme concentration used
- activity level (grade) (6xHis-AtSUMO1-eGFP): -
- cleavage, single enzyme concentration, SDS-PAGE (6xHis-AtSUMO1-eGFP): did not digest the others at the incubation time and enzyme concentration used

B3: human SENP1 (hSENP1) SUMO protease catalytic domain (protein)
chain: MASFPEITEEMEKEIKNVFRNGNQDEVLSEAFRLTITRKDIQTLNHLNWLNDEIINFYMNMLMERSKEKGLPSVHAFNTFFFTKLKTAGYQAVKRWTKKVDVFSVDILLVPIHLGVHWCLAVVDFRKKNITYYDSMGGINNEACRILLQYLKQESIDKKRKEFDTNGWQLFSKKSQIPQQMNGSDCGMFACKYADCITKDRPINFTQQHMPYFRKRMVWEILHRKLLEHHHHHH
- activity level (grade) (6xHis-T-SUMO-eGFP): +/-
- cleavage, single enzyme concentration, SDS-PAGE (6xHis-T-SUMO-eGFP): It also cleaved the other 4 fusions, but to a much lesser extent
- activity level (grade) (6xHis-hSUMO-1-eGFP): +/-
- cleavage, single enzyme concentration, SDS-PAGE (6xHis-hSUMO-1-eGFP): It also cleaved the other 4 fusions, but to a much lesser extent
- activity level (grade) (6xHis-ySmt3-eGFP): ++
- cleavage, single enzyme concentration, SDS-PAGE (6xHis-ySmt3-eGFP): hSENP1, which cleaved ySmt3 the best
- activity level (grade) (6xHis-hSUMO-3-eGFP): +
- cleavage, single enzyme concentration, SDS-PAGE (6xHis-hSUMO-3-eGFP): cleaved ySmt3 the best, followed by hSUMO-3
- activity level (grade) (6xHis-AtSUMO2-eGFP): +/-
- cleavage, single enzyme concentration, SDS-PAGE (6xHis-AtSUMO2-eGFP): It also cleaved the other 4 fusions, but to a much lesser extent
- activity level (grade) (6xHis-AtSUMO1-eGFP): +/-
- cleavage, single enzyme concentration, SDS-PAGE (6xHis-AtSUMO1-eGFP): It also cleaved the other 4 fusions, but to a much lesser extent

B4: Arabidopsis thalania ULP1c (AtULP1c) SUMO protease catalytic domain (protein)
chain: MVVEEACELPEGLPEDIYYPSSDQSDGRDLVQVSLKDLKCLSPGEYLTSPVINFYIRYVQHHVFSADKTAANCHFFNTFFYKKLTEAVSYKGNDRDAYFVKFRRWWKGFDLFCKSYIFIPIHEDLHWSLVIICIPDKEDESGLTIIHLDSLGLHPRNLIFNNVKRFLREEWNYLNQDAPLDLPISAKVWRDLPNMINEAEVQVPQQKNDFDCGLFLLFFIRRFIEEAPQRLTLQDLKMIHKKWFKPEEASALRIKIWNILVDLFRKGNQTDLEHHHHHH
- activity level (grade) (6xHis-T-SUMO-eGFP): -
- cleavage, single enzyme concentration, SDS-PAGE (6xHis-T-SUMO-eGFP): AtULP1c did not show activity against any of the SUMO fusions
- activity level (grade) (6xHis-hSUMO-1-eGFP): -
- cleavage, single enzyme concentration, SDS-PAGE (6xHis-hSUMO-1-eGFP): AtULP1c did not show activity against any of the SUMO fusions
- activity level (grade) (6xHis-ySmt3-eGFP): -
- cleavage, single enzyme concentration, SDS-PAGE (6xHis-ySmt3-eGFP): AtULP1c did not show activity against any of the SUMO fusions
- activity level (grade) (6xHis-hSUMO-3-eGFP): -
- cleavage, single enzyme concentration, SDS-PAGE (6xHis-hSUMO-3-eGFP): AtULP1c did not show activity against any of the SUMO fusions
- activity level (grade) (6xHis-AtSUMO2-eGFP): -
- cleavage, single enzyme concentration, SDS-PAGE (6xHis-AtSUMO2-eGFP): AtULP1c did not show activity against any of the SUMO fusions
- activity level (grade) (6xHis-AtSUMO1-eGFP): -
- cleavage, single enzyme concentration, SDS-PAGE (6xHis-AtSUMO1-eGFP): AtULP1c did not show activity against any of the SUMO fusions
